Measured values taken from patent US20240158517A1 (HIFIBIO HK, published 2024).
Substitutions are numbered along the chain they refer to. Names may count otherwise.

T1: human CXCR5 (human, UniProt P32302 1-372)
T1 construct: whole, on cells; Always presented on cells; one entry is used for all cell lines; also called hCXCR5; C-X-C chemokine receptor type 5
T1 sequence (looked up): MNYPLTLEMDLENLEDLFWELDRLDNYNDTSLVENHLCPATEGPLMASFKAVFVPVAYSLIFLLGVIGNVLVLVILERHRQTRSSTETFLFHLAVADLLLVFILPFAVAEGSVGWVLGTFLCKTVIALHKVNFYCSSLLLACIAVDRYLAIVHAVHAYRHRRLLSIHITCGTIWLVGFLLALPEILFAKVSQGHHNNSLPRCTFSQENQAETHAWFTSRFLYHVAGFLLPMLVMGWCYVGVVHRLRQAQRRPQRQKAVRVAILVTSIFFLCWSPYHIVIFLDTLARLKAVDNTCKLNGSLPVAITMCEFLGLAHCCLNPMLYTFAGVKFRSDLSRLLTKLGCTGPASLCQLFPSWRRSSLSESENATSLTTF

T2: cynomolgus CXCR5 (cynomolgus monkey, UniProt G8F5K4 1-372)
T2 construct: whole, on cells; also called monkey CXCR5 ortholog
T2 sequence: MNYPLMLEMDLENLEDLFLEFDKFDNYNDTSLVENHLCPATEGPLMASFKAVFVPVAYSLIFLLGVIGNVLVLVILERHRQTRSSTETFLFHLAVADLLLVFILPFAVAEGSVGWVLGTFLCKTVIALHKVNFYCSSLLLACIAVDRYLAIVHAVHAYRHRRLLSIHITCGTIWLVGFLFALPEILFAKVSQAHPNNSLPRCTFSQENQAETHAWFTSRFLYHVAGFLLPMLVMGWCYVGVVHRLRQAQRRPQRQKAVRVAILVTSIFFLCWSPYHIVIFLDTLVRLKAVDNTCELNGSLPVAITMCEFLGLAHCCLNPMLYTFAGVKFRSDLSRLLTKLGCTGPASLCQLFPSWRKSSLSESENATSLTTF

T3: murine CXCR5 (mouse, UniProt Q04683 1-374)
T3 construct: whole, on cells; also called mouse CXCR5 ortholog
T3 sequence (looked up): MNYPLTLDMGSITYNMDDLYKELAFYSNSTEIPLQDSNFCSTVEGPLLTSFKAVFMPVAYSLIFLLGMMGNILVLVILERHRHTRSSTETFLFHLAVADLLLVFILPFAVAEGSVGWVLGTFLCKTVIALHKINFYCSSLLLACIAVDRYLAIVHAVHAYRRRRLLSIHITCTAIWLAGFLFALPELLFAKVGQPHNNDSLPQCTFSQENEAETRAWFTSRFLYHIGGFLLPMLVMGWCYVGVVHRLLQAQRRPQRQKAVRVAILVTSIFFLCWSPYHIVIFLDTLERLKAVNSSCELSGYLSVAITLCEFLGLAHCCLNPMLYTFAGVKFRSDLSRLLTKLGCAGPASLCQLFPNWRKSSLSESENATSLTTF

T4: human CXCR3 (human, UniProt P49682 1-368, limits assumed)
T4 construct: also called hCXCR3
T4 sequence (looked up): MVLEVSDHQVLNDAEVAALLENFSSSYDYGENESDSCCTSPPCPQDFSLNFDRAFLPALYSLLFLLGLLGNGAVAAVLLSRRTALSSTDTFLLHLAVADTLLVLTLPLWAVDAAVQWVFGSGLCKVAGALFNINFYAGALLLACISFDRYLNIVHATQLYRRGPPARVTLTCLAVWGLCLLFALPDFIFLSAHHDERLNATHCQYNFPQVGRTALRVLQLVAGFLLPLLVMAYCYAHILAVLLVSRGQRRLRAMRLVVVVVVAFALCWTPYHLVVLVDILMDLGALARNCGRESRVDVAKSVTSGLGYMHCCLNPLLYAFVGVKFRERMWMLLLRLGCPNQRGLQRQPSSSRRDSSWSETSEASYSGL

B1: HFB2-4hz38hG1DE (antibody, V domains shown)
VH: QVQLQESGPGLVKPSETLSLTCTVSGFSLTSYGVSWVRQPPGKGLEWIGVIWGDGSTNYNPSLKSRVTISKDTSKNQVSLKLSSVTAADTAVYYCARVVYWGQGTLVTVSS
VL: DIVMTQSPDSLAVSLGERATINCRSSKSLLHSNGKTYLYWFQQKPGQSPKLLLYRMSNLASGVPDRFSGSGSGTDFTLTISSLQAEDVAVYYCMQHLEYPYTFGQGTKLEIK
notes: Humanized (VH3/VL7) in hG1DE format
B2: HFB2-4hz37hG1DE (antibody, V domains shown)
VH: B1 VH
VL: EIVMTQSPATLSVSPGERATLSCRSSKSLLHSNGKTYLYWFQQKPGQAPRLLIYRMSNLASGIPARFSGSGSGTEFTLTISSVQSEDVAVYYCMQHLEYPYTFGQGTKLEIK
notes: Humanized (VH3/VL6) produced in hG1DE format (human IgG1, S239D/I332E)
B3: HFB2-4hz39hG1DE (antibody, V domains shown)
VH: B1 VH with E16G, T23A, V67L, T73K
VL: B2 VL
notes: Humanized (VH6/VL6) in hG1DE format
B4: HFB2-4hz42hG1DE (antibody, V domains shown)
VH: QVQLVQSGAEVKKPGASVKVSCKASGFSLTSYGVSWVRQAPGQGLEWMGVIWGDGSTNYAQKLQGRVTMTKDTSTSTAYMELRSLRSDDTAVYYCARVVYWGQGTLVTVSS
VL: B2 VL
notes: Humanized (VH10/VL6) in hG1DE format
B5: HFB2-4hG1DE (antibody, V domains shown)
VH: QVQLKESGPGLVAPSQSLSITCTVSGFSLTSYGVSWVRQPPGKGLEWLGVIWGDGSTNYHSGLISRLSISKDNSKSQVFLKLNSLQSDDTATYYCARVVYWGQGTLVTVSA
VL: DIVMTQAAPSVPVTPGESISISCRSSKSLLHSNGKTYLYWFLQRPGQSPQLLLYRMSNLASGVPDRFSGSGSGTAFTLRISRVEAEDVGVYYCMQHLEYPYTFGGGTKLEIK
notes: Chimeric HFB2-4 in the DE scaffold: human IgG1 constant region with S239D/I332E; also called HFB2-4DE
B6: HFB2-1-hG1 (antibody, V domains shown)
VH: EVKLEESGGGLVQPGGSMKLSCVASGFTFSNYWMNWVRQSPEKGLEWVAQIRLKSDNYATHYTESVKGRFTISRDDSKSSVYLQMNNLRAEDTGIYYCTPPNFDYWGQGTTLTVSS
VL: DIVMTQAAPSVTVTPGESVTISCRSTTSLLHRSGKHKFYWFLQRPGQSPQLLIYYVSNLASGVPDRFSGSGSGTDFTLRISRVEAEDFGVYYCMQSLEFPLTFGTGTKLEIK
notes: Mouse-human chimeric antibody: murine VH and VL on the human IgG1 constant region
B7: HFB2-2-hG1 (antibody, V domains shown)
VH: EVQLVETGGGLVQPKGSLKLSCAASGFTFNTNAMNWVRQAPGKGLEWVARIRSKSNNYATHYVDSVKDRFTISRDDSQSMLYLQMNNLKTEDTAMYYCVSWDPFAYWGQGTLVTVSA
VL: NIMMTQSPSSLAVSAGEKVTMSCKSSQSVLYSSNQKNYLAWYQQKPGQSPKLLIYWASTRASGVPDRFTGSGSGTDFTLTISSVQTEDLAVYYCHQYLSSWTFGGGAKLEIK
notes: Mouse-human chimeric antibody, human IgG1 constant region
B8: HFB2-6-hG1 (antibody, V domains shown)
VH: QIQLQQSGPELVEPGASVKLSCKASGYTFTDYTIHWVKQSPGQGLEWIGWIYPGSGNIKYNDKFKGKATMTADKSSSTAYMQLSSLTSEDSAVYFCARGLRREFAYWGQGTLVTVSA
VL: DIVMTQAAFSNPVTLGTSASISCRSSKSLLHSNGITYLYWYLQKPGQSPQLLIYQMSNLASGVPDRFSSSGSGTDFTLRISRVEAEDVGVYYCAQSLELPLTFGAGTKLELK
notes: as for B7
B9: HFB2-4-hG1 (antibody, V domains shown)
VH: B5 VH
VL: B5 VL
notes: Mouse-human chimeric antibody, human IgG1 constant region; also called parental
B10: HFB2-4hz14-hG1DE (antibody, V domains shown)
VH: B1 VH
VL: DIVMTQSPLSLPVTPGEPASISCRSSQSLLHSNGYNYLYWFLQKPGQSPQLLIYRGSNRASGVPDRFSGSGSGTDFTLKISRVEAEDVGVYYCMQHLQYPYTFGGGTKVEIK
notes: Humanized (VH3/VL1b), human IgG1 with S239D/I332E (hG1DE)
B11: HFB2-4hz12-hG1DE (antibody, V domains shown)
VH: B1 VH
VL: DIQMTQSPSSLSASVGDRVTITCRSSKSLLHSNGKTYLYWFQQKPGKAPKLLIYRMSNLASGVPSRFSGSGSGTDFTLTISSLQPEDFATYYCMQHLEYPYTFGGGTKVEIK
notes: Humanized (VH3/VL4), human IgG1 with S239D/I332E (hG1DE); also called HFB2-4hz12hIgDE
B12: HFB2-4hz15-hG1DE (antibody, V domains shown)
VH: B1 VH
VL: B5 VL with A7S, A8P, P9L, V11L, S18P, I21L, R44K, A75D, R79K
notes: Humanized (VH3/VL1c), human IgG1 with S239D/I332E (hG1DE)
B13: afucosylated HFB2-4hz42-hG1 (antibody, V domains shown)
VH: B4 VH
VL: B2 VL
modifications: afucosylated (no core fucose on the Fc N-glycan of the heavy chain)
notes: Afucosylated format of humanized HFB2-4hz42-hG1 (human IgG1); also called afu-HFB2-4hz42-hG1; Afu-HFB2-4hz42-hG1
B14: afucosylated HFB2-4hG1 (antibody, V domains shown)
VH: B5 VH
VL: B5 VL
modifications: afucosylated (no core fucose on the Fc N-glycan of the heavy chain)
notes: Afucosylated format of the chimeric HFB2-4hG1 (human IgG1, no DE mutation); also called afu-HFB2-4hG1; AfuHFB2-4hG1

Target: T1, human CXCR5
Assay: binding to DX002 cells expressing CXCR5

| Binder | EC50 |
| --- | --- |
| B1 | 106 pM |
| B2 | 99 pM |
| B3 | 260 pM |
| B4 | 171 pM |
| B5 | 186 pM |

Target: T1, human CXCR5
Assay: cell-based or functional assay

| Binder | ADCC lysis of Raji cells by primary NK cells, EC50 | ADCC lysis of peripheral primary B cells by primary NK cells, EC50 |
| --- | --- | --- |
| B5 | 0.76 pM | 0.00044 pM |

Target: T2, cynomolgus CXCR5
Assay: flow cytometry on cells transiently transfected with cynomolgus CXCR5

| Binder | binding result |
| --- | --- |
| B6 | no binding (tested: about 150 nM) |
| B7 | no binding (tested: about 150 nM) |

Target: T1, human CXCR5
Assay: flow cytometry on adherent DX002 cells expressing CXCR5, MFI

| Binder | EC50 |
| --- | --- |
| B1 | 87.8 pM |
| B2 | 78.5 pM |
| B3 | 232 pM |
| B4 | 123 pM |
| B5 | 112 pM |

Target: T1, human CXCR5
Assay: flow cytometry on an adherent stable cell line expressing hCXCR5, MFI normalized on the benchmark MFI
Procedure: In order to test the binding capacity to CXCR5, six chimeric monoclonal antibodies were tested in binding assay using adherent stable cell line expressing the target antigen hCXCR5.

| Binder | EC50 |
| --- | --- |
| B6 | 481 pM |
| B7 | 482 pM |
| B8 | 500 pM |
| B9 | 924 pM |

Target: T3, murine CXCR5
Assay: flow cytometry on cells transiently transfected with murine CXCR5

| Binder | binding result |
| --- | --- |
| B6 | no binding (tested: about 150 nM) |
| B7 | no binding (tested: about 150 nM) |
| B8 | no binding (tested: about 150 nM) |
| B9 | no binding (tested: about 150 nM) |

Target: T1, human CXCR5
Assay: binding to hCXCR5, Exp 1 (assay not given)

| Binder | EC50 |
| --- | --- |
| B10 | 400 pM |
| B11 | 1200 pM |
| B12 | 600 pM |
| B5 | 1000 pM |

Target: T1, human CXCR5
Assay: flow cytometry on DX002 cells expressing CXCR5, MFI

| Binder | EC50 |
| --- | --- |
| B13 | 820 pM |
| B14 | 810 pM |

Target: T1, human CXCR5
Assay: binding to hCXCR5, Exp 2 (assay not given)

| Binder | EC50 |
| --- | --- |
| B10 | 100 pM |
| B11 | 300 pM |
| B12 | 50 pM |
| B5 | 1300 pM |

Target: T4, human CXCR3
Assay: flow cytometry (MFI) on hCXCR3

| Binder | binding result |
| --- | --- |
| B6 | no binding (tested: about 150 nM) |
| B7 | no binding (tested: about 150 nM) |
| B8 | no binding (tested: about 150 nM) |
| B9 | no binding (tested: about 150 nM) |
